Measured values taken from paper PMC5853512, “Arabidopsis MKK10-MPK6 mediates red-light-regulated opening of seedling cotyledons through phosphorylation of PIF3” (Journal of Experimental Botany, 2017).

Target: T1, GST-PIF3 (Arabidopsis thaliana, UniProt O80536 1-524)
T1 construct: coding region with an NdeI site before the first ATG and an XhoI site at its 3' end, NdeI/XhoI fragment cloned into pGEX4T-2; source: E. coli BL21, purified (Glutathione Sepharose 4B)
T1 sequence (looked up): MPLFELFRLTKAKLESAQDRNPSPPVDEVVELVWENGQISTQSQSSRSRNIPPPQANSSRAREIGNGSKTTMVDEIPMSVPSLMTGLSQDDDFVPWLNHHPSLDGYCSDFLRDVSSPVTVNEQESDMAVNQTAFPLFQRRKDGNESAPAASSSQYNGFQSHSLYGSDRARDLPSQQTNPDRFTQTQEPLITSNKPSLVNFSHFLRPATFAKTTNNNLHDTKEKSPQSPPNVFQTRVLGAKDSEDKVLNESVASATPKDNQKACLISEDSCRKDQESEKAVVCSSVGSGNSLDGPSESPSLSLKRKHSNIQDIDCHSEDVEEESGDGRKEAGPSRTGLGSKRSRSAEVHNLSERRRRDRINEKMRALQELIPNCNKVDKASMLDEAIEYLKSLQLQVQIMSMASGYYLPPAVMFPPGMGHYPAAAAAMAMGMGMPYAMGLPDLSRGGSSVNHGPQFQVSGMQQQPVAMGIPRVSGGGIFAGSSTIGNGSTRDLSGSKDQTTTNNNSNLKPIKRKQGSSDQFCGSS
Assay: pull-down; GST or GST-PIF3 bound to Glutathione Sepharose 4B beads, incubated with His-MPK6 in 50 mM Tris-HCl pH 7.5, 100 mM NaCl, 0.02% Triton X-100 at 4 °C for 2 h; immunoblot with anti-GST and anti-His
Conditions: both partners purified

binding result: binds
B1: His-MPK6 (enzyme, Arabidopsis thaliana, UniProt Q39026 1-395, looked up)
chain: MDGGSGQPAADTEMTEAPGGFPAAAPSPQMPGIENIPATLSHGGRFIQYNIFGNIFEVTAKYKPPIMPIGKGAYGIVCSAMNSETNESVAIKKIANAFDNKIDAKRTLREIKLLRHMDHENIVAIRDIIPPPLRNAFNDVYIAYELMDTDLHQIIRSNQALSEEHCQYFLYQILRGLKYIHSANVLHRDLKPSNLLLNANCDLKICDFGLARVTSESDFMTEYVVTRWYRAPELLLNSSDYTAAIDVWSVGCIFMELMDRKPLFPGRDHVHQLRLLMELIGTPSEEELEFLNENAKRYIRQLPPYPRQSITDKFPTVHPLAIDLIEKMLTFDPRRRITVLDALAHPYLNSLHDISDEPECTIPFNFDFENHALSEEQMKELIYREALAFNPEYQQ
notes: coding region amplified from seedling cDNA with an NdeI site before the first ATG, NdeI/SalI fragment cloned into pET28a(+); The NdeI site of pET28a(+) would put the His tag at the N-terminus (surmised); source: E. coli BL21, purified (Ni2+-chelating Sepharose Fast Flow)
